Results as given in patent US20260258084A1, “New Peptides as Selective IL-23 Receptor Antagonists” (Sanofi, priority 2022, published 2026).
Starred links: 1 amine or outer side, 2 acyl side, 3 side chain; linkers in the order of their positions; H or OH if unused. Positions of bridges follow the written chain, without caps; N, C: chain ends. Non-standard residues stand in square brackets, D forms with d. Yde = (2S)-2-amino-3-[4-[2-(dimethylamino)ethoxy]phenyl]propanoic acid, CN(C)CCOc1ccc(C[C@H](N[*:1])C(=O)[*:2])cc1; Trp(7-Me) = Cc1cccc2c(C[C@H](N)C(=O)O)c[nH]c12; 2Nal = N[C@@H](Cc1ccc2ccccc2c1)C(=O)O; 3Pal = N[C@@H](Cc1cccnc1)C(=O)O; Dad = desamino-aspartamic acid; Lys(Me) = CNCCCC[C@H](N)C(=O)O; αMeL = CC(C)C[C@](C)(N)C(=O)O; Thp = NC1(C(=O)O)CCOCC1; Aib = CC(C)(N)C(=O)O; Ava = NCCCCC(=O)O; Sar = CNCC(=O)O

T1: IL-23 receptor on the surface of HEK-Blue IL-23 cells (UniProt Q5VWK5 24-629, limits assumed)
T1 sequence (looked up): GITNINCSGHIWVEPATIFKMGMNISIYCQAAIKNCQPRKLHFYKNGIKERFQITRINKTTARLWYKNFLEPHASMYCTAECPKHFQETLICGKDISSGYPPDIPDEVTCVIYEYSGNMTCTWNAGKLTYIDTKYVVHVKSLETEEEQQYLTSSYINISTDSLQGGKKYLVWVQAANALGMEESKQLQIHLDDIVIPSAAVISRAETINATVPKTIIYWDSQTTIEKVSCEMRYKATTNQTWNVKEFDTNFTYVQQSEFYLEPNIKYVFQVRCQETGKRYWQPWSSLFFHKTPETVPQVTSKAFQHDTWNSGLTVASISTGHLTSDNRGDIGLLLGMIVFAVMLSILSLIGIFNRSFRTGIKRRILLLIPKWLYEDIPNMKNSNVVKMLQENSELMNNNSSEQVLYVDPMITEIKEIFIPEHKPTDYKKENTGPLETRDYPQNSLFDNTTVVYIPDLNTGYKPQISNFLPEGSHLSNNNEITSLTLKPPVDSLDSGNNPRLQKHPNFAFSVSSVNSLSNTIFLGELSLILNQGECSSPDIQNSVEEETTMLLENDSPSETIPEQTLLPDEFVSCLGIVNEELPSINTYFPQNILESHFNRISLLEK

B1: Compound of SEQ ID NO: 24 (peptide)
peptide: [Ava]CNT[Trp(7-Me)]LC[Yde][2Nal][Thp]EN[3Pal][Sar]-NH2
modifications: lactam N-11; disulfide 2-7
SMILES: Cc1cccc2c(C[C@@H]3NC(=O)[C@H]([C@@H](C)O)NC(=O)[C@H](CC(N)=O)NC(=O)[C@@H]4CSSC[C@H](NC(=O)[C@H](CC(C)C)NC3=O)C(=O)N[C@@H](Cc3ccc(OCCN(C)C)cc3)C(=O)N[C@@H](Cc3ccc5ccccc5c3)C(=O)NC3(CCOCC3)C(=O)N[C@H](C(=O)N[C@@H](CC(N)=O)C(=O)N[C@@H](Cc3cccnc3)C(=O)N(C)CC(N)=O)CCC(=O)NCCCCC(=O)N4)c[nH]c12
B2: Compound of SEQ ID NO: 21 (peptide)
peptide: [Ava]CNT[Trp(7-Me)]K(Ac)C[Yde][2Nal][Thp]ENH-NH2
modifications: lactam N-11; disulfide 2-7
SMILES: CC(=O)NCCCC[C@@H]1NC(=O)[C@H](Cc2c[nH]c3c(C)cccc23)NC(=O)[C@H]([C@@H](C)O)NC(=O)[C@H](CC(N)=O)NC(=O)[C@@H]2CSSC[C@H](NC1=O)C(=O)N[C@@H](Cc1ccc(OCCN(C)C)cc1)C(=O)N[C@@H](Cc1ccc3ccccc3c1)C(=O)NC1(CCOCC1)C(=O)N[C@H](C(=O)N[C@@H](CC(N)=O)C(=O)N[C@@H](Cc1c[nH]cn1)C(N)=O)CCC(=O)NCCCCC(=O)N2
B3: Compound of SEQ ID NO: 22 (peptide)
peptide: [Ava]CNT[Trp(7-Me)]K(Ac)C[Yde][2Nal][αMeL]ENH-NH2
modifications: lactam N-11; disulfide 2-7
SMILES: CC(=O)NCCCC[C@@H]1NC(=O)[C@H](Cc2c[nH]c3c(C)cccc23)NC(=O)[C@H]([C@@H](C)O)NC(=O)[C@H](CC(N)=O)NC(=O)[C@@H]2CSSC[C@H](NC1=O)C(=O)N[C@@H](Cc1ccc(OCCN(C)C)cc1)C(=O)N[C@@H](Cc1ccc3ccccc3c1)C(=O)N[C@@](C)(CC(C)C)C(=O)N[C@H](C(=O)N[C@@H](CC(N)=O)C(=O)N[C@@H](Cc1c[nH]cn1)C(N)=O)CCC(=O)NCCCCC(=O)N2
B4: Compound of SEQ ID NO: 26 (peptide)
peptide: [Ava]CNTWQC[Yde][2Nal][Thp]ENN-NH2
modifications: lactam N-11; disulfide 2-7
SMILES: C[C@@H](O)[C@@H]1NC(=O)[C@H](CC(N)=O)NC(=O)[C@@H]2CSSC[C@H](NC(=O)[C@H](CCC(N)=O)NC(=O)[C@H](Cc3c[nH]c4ccccc34)NC1=O)C(=O)N[C@@H](Cc1ccc(OCCN(C)C)cc1)C(=O)N[C@@H](Cc1ccc3ccccc3c1)C(=O)NC1(CCOCC1)C(=O)N[C@H](C(=O)N[C@@H](CC(N)=O)C(=O)N[C@@H](CC(N)=O)C(N)=O)CCC(=O)NCCCCC(=O)N2
B5: Compound of SEQ ID NO: 20 (peptide)
peptide: [Ava]CNT[Trp(7-Me)]K(Ac)C[Yde][2Nal][Aib]ENH-NH2
modifications: lactam N-11; disulfide 2-7
SMILES: CC(=O)NCCCC[C@@H]1NC(=O)[C@H](Cc2c[nH]c3c(C)cccc23)NC(=O)[C@H]([C@@H](C)O)NC(=O)[C@H](CC(N)=O)NC(=O)[C@@H]2CSSC[C@H](NC1=O)C(=O)N[C@@H](Cc1ccc(OCCN(C)C)cc1)C(=O)N[C@@H](Cc1ccc3ccccc3c1)C(=O)NC(C)(C)C(=O)N[C@H](C(=O)N[C@@H](CC(N)=O)C(=O)N[C@@H](Cc1c[nH]cn1)C(N)=O)CCC(=O)NCCCCC(=O)N2

target: T1, IL-23 receptor on the surface of …; assay: cell-based or functional assay

pSTAT3 (nM)	Binder
0.59 nM	B1
3.32 nM	[Dad]CNT[Trp(7-Me)]K(Ac)C[Yde][2Nal][αMeL]KNH-NH2 (lactam N-11; disulfide 2-7) [Compound of SEQ ID NO: 23]
2.67 nM	B2
1.37 nM	B3
3.37 nM	B4
3.12 nM	B5
39.2 nM	[Dad]CNTWQC[Yde][2Nal][Aib][Lys(Me)]NN-NH2 (lactam N-11; disulfide 2-7) [Compound of SEQ ID NO: 25]
